Reference: patent US20260034233A1 (SUNMED THERAPEUTIC, published 2026)
Numbering of substitutions follows the chain as printed.

T1: Rat GAL-3 (rat, UniProt P08699 2-262, limits assumed)
T1 construct: also called rat Galectin-3
T1 sequence (looked up): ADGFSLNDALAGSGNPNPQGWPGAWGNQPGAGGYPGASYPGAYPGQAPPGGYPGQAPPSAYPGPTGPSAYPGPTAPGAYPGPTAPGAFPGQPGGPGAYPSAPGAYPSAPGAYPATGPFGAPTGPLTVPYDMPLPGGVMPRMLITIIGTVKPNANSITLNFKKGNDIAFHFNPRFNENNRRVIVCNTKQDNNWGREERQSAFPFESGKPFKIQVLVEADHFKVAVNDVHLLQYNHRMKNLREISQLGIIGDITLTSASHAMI

T2: Gal3-e
T2 construct: also called Galectin3-e; Gal-3 peptide
T2 peptide: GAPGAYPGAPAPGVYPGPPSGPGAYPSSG

B1: SIF001 (antibody, V domains shown)
VH: QVQLVQSGSELKKPGASVKVSCKASGYTFTNYGMNWVRQAPGQGLEWMGWINTYTGEPTYADDFKGRFVFSLDTSVSTAYLQISSLKNEDMAVYFCARYAMDYWGQGTLVTVSS
VL: EAVVTQEPSLTVSPGGTVTLTCRSSTGAVTTSNYANWVQQKPGQAFTGLIGGTSNRAPGTPARFSGSLLGDKAALTLLGAQPEDEAEYFCALWYSTHYVFGGGTKLTVL
notes: Humanized monoclonal antibody raised against human GAL-3; also called SIF001 Ab; SF001
B2: SIF002 (antibody, V domains shown)
VH: EVQLLESGGGLVQPGGSLRLSCAASGFTFSRFWMSWVRQAPGKGLEWVSEISPDSNTIDLTPSLKDRFTISRDNSKNTLYLQMNSLRAEDTAVYYCAKPYYGYYWGQGTLVTVSS
VL: DIVMTQSPDSLAVSLGERATMNCRSSQSLFSSTNQKNYLTWYQQKPGQPPKLLIYWASSRESGVPDRFSGSGSGTDFTLTISSLQAEDVAVYYCQNDYTSPFTFGQGTRLEIK
B3: Fab of the SIF001 antibody (Fab, V domains shown)
VH: B1 VH
VL: B1 VL
B4: 1104SBC1068-033 (antibody, IgG4, V domains shown)
VH: DVQLQESGPGLVKPSQSLSLTCTVTGYSITSDYAWNWIRQFPGNKLEWMGYISYSGSTSYNPSLKSRISITRDASKNQFFLQLNSVTTEDTATYYCAREGGRGGTEGYYFDYWGQGTTLTVSS
VL: NIVLTQSPASLAVSLGQRATISCRASESVDSYGNSFMHWYQQKPGQPPKLLIYLASNLESGVPARFSGSGSRTDFTLTIDPVEADDAATYYCQQNNEDPLTFGAGTKLELK
B5: 1220SBC1068-186 (antibody, IgG4, V domains shown)
VH: EVQLQQSGPELVKPGASMKMSCKASGYSFTGYTMNWVKQSHGKNLEWIGLISPYSGGTNYNQKFKGKATLTVDKSSSTAYMEVFSLTSEDSGVYYCARSGFITTGVATNFDVWGAGTTVTVSS
VL: DIVMTQSHKFMSTSVGDRVSITCKASQDVSTAVAWYQQRPGQSPKLLIYSASNRYTGVPDRFTGSGSGTDFTFTISSMQAEDLAIYYCQQHYSTPRTFGGGTKLEIK
B6: 1220SBC1068-022 (antibody, IgG4, V domains shown)
VH: EVKLVESGGGLVQPGGSRKLSCAASGFTFSDYGMAWFRQAPGKGPEWVAFISNLAYSVYYADTVTGRFTISRENAKNTLFLEMSSLRSEDTAIYYCTRDRGLRESMDYWGQGTSVTVSS
VL: DIVMTQAAPSVPVTPGESVSISCRSSKSLLHNNGNTYLCWFLQRPGQSPQLLIYRMSDLASGVPDRFSGSGSGTAFTLRISRVEAEDVGVYYCMQHLEYPYTFGGGTKLEIK
B7: 1220SBC1068-056 (antibody, IgG4, V domains shown)
VH: B6 VH with F80Y
VL: B6 VL with R24G, N32K, D58N, R82S, V90I
B8: 1220SBC1068-058 (antibody, IgG4, V domains shown)
VH: B6 VH with F80Y, S84N, S105T
VL: B6 VL with D58N
B9: 1104SBC1068-374 (antibody, IgG4, V domains shown)
VH: QIQLVQSGPELKKPGETVKISCKASGYTFTNYGMNWVKQAPGKGLKWMGWINTYTGEPTYADDFKGRFAFSLETSASTAYLQINNLKNEDMATYFCARYAMDYWGQGTSVTVSS
VL: QAVVTQESALTTSPGGTVILTCRSSTGAVTTSNYANWVQEKPDHLFTGLIGGTSNRAPGVPVRFSGSLIGDKAALTITGAQTEDDAMYFCALWYSTHYVFGGGTKVTVL
B10: 1104SBC1068-335 (antibody, IgG4, V domains shown)
VH: QIQLVQSGPELKKPGETVKISCKASGYIFTNYGMNWVKQAPGKGLKWMGWINTYSGEPTYVDDFKGRFVFSLETSASTAYLQINNLKNEDMATYFCARGTVVGFDYWGQGTTLTVSS
VL: not shown
B11: 1104SBC1068-378 (antibody, IgG4, V domains shown)
VH: QIQLVQSGPELKKPGETVKISCKASGYTFTNYGMNWVKQAPGKGLKWMGWINTYTGEPTYADDFKGRFAFSLETSASTAYLQINNLKNEDTATYFCARWDDYDGFAYWGQGTLVTVSA
VL: DIVLTQSPATLSVTPGDSVSLSCRASQSISNNLHWYQQKSHESPRLLIKYASQSISGIPSRFSGSGSGTDFTLSINSVETEDFGMYFCQQSNSWPLTFGAGTKLELK
B12: 1104SBC1068-365 (antibody, IgG4, V domains shown)
VH: QIQLVQSGPELKKPGETVKISCKASGYTFTNYGMNWVKQAPGKGLKWMGWINTNTGEPTYSEEFKGRFAFSLETSASTAYLQINNLKNEDTATYFCGRSSYYAMDYWGQGTSVTVSS
VL: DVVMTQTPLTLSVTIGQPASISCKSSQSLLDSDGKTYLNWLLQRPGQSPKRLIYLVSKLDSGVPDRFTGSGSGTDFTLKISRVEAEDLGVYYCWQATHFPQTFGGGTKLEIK
B13: 1220SBC1068-035 (antibody, IgG4, V domains shown)
VH: B5 VH with M20I, S28A, K63R, L70F, V83L, F84L, A107P
VL: B5 VL with R18G, S20N, R39K, K45R, N53Y, I85V, S93T
B14: 1220SBC1068-210 (antibody, IgG4, V domains shown)
VH: EVKLLESGGGLVQPGGSLKLSCAASGFDFSRYWMSWVRQAPGKGLEWIGEINPDSSTIDLTPSLKDNFIISRDNAKNALYLQMSKVRSEDTALYYCTRPYYGYYWGQGTLVTVSA
VL: DIVMTQSPSSLTVTAGEKVTMNCRSSQSLLNSTNQKNYLTWYQQRPGQPPKLLIYWASTRESGVPDRFTGSGSGTDFTLTISTVQAEDLAVYYCQNDYTSPFTFGSGTKLEIK
B15: 1220SBC1068-041 (antibody, IgG4, V domains shown)
VH: B14 VH with Y32F, N52S, S56N, Y80F
VL: B14 VL with L30F, R45K, T59S, A86T, K109R
B16: 1220SBC1068-097 (antibody, IgG4, V domains shown)
VH: B14 VH with R87K, Y101H
VL: B14 VL with R45K, S82N, V91I
B17: 1220SBC1068-098 (antibody, IgG4, V domains shown)
VH: B14 VH with N52S, R87K, Y101H
VL: B14 VL with R45K, R60K, S82N
B18: 1220SBC1068-274 (antibody, IgG4, V domains shown)
VH: B14 VH with N52S, S56N, V86L
VL: B14 VL with R45K, T75S
B19: 1220SBC1068-063 (antibody, IgG4, V domains shown)
VH: EVNLLESGGGLVQPGGSLKLSCEASGFDFSRFWMSWVRQTPGEGLEWIGEISPNSSTIHQTPSLKDRFIISRDNAKNTLFLQMTKVTSDDSALYYCARPYYGYYWGHGTLVTVSA
VL: DIVMTQSPSSLTVTAGEKVTMSCKSSQSLLSSINQKNYLTWYQQKPGQPPKLLIYWATSRESGVPDRFTGSGSGTDFTLTISSLQAEDLAVYYCHNDYSYPFTFGSGTRLEIK
B20: 1220SBC1068-197 (antibody, IgG4, V domains shown)
VH: B19 VH with R67K, I69F, N77S, K85N, D89E
VL: B19 VL with S31N, S59F, S83G
B21: 1220SBC1068-129 (antibody, IgG4, V domains shown)
VH: B14 VH with G10D, Y32F, D59T, L60Y, N67K, N77S, A78S, R87T, T97A
VL: DIVMTQSPSSLTVTAGKEVTMSCKSSQSLLNSTNQKNYLTWYQQKPGQSPKLLIYWASTRDSGVPDRFTGSGSGTDFTLTISSVQAEDLAIYYCHNDYISPFTFGSGTKLEIK
B22: 1220SBC1068-099 (antibody, IgG4, V domains shown)
VH: B14 VH with S35T, D54H, D59T, L60Y, N67K, A78T, R87S, T97A
VL: B14 VL with N22S, R24K, T33G, N37I, R45K, T59I, T83S, T99S
B23: 1220SBC1068-164 (antibody, IgG4, V domains shown)
VH: B14 VH with N52S, D59N, L60Y, P62A, N67K, I69N, A78T, T97A, A115E
VL: B14 VL with N22S, R24K, L30F, T33G, R45K, S58Y, S82H, T83G, Q95H, I112M

Each binder was assayed against T3, human Galectin-3 (human, UniProt P17931 2-250, limits assumed) (assay: SPR).
T3 construct: also called Human GAL-3; hGal-3
T3 sequence (P17931 2-250 limits assumed): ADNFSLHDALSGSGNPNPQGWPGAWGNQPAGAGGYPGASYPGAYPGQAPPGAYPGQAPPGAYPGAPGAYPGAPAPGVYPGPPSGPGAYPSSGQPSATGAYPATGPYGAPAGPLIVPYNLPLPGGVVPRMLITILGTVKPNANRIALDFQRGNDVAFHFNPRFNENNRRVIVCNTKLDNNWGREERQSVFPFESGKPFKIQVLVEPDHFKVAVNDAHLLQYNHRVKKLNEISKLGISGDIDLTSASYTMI
Binder B1 has a Kd of 71.5 nM.

Each binder was assayed against T4, Mouse GAL-3 (mouse, UniProt P16110 2-264, limits assumed) (assay: SPR).
T4 construct: also called mouse Galectin-3
T4 sequence (P16110 2-264 limits assumed): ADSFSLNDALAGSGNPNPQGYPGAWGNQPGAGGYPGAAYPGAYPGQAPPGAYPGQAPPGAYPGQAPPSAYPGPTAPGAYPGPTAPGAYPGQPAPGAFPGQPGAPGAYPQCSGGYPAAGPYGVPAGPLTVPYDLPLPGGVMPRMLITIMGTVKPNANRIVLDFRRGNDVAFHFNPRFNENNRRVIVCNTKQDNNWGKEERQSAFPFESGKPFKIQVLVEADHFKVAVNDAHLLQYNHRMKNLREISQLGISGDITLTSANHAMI
B1 was tested, and the Kd was 10.9 nM.

These binders were tested against T1, Rat GAL-3 (assay: SPR).
Work on B1 yielded a Kd of 11.7 nM.

The binders below were run against T3, human Galectin-3 (assay: ELISA on human Galectin-3).
B2: binds.

Molecular target: T2, Gal3-e
Assay: size exclusion chromatography of the mixture
Procedure: For X-ray diffraction, first we developed a homogeneous Gal3-e-Fab complex through Size Exclusion Chromatography (SEC) and analyzed the complex through crystallization screening and optimization. However, no diffraction patterns but only large block- and rod-shaped crystals were observed by multi-rounds of optimization. Screened commercial kits included crystal screens, structure screens, Index, JCSG plus, PEG/Ion1&2, ProPlex screens, and additive screens.
Excess Gal3-e were incubated with the Fab on ice for 30 minutes. After the incubation, Gal3-e-Fab complex was isolated from the mixture using SEC (Column: Superdex 75 increase 10/300).
B3: binds.

Each binder was assayed against T3, human Galectin-3 (assay: Carterra LSA SPR epitope binning, antibody on chip, hGal-3 injected).
Procedure: The purpose of this study is to determine the epitope binning of antibodies against human Gal-3. Binning assay was conducted to characterize epitopes of the anti-Gal-3 antibodies using a Carterra LSA instrument. All the antibodies were constructed in hIgG4 backbone. Antibodies as ligands were covalently linked to a HC200M chip. The antigen hGal-3 as the analyte was injected to flow cells to bind to the captured ligands. Competitive binning was programmed to determine if two mAbs can bind simultaneously to the same antigen.
Epitope binning assay procedure. An array of antibodies as ligand were coupled to the chip surface HC200M using the Multichannel PH with the running buffer (25 mM MES buffer). The NHS/EDC activation time and coupling time was set at 5 min and 15 min respectively. The SFC then docked onto the chip, and in each cycle, antigen human Galectin-3 was injected across the entire Ab array, with association time of 5 min, followed by a single antibody as analyte with association time of 5 min. After 1 min dissociation, regeneration buffer (pH 2.0, 10 mM Glycine) was applied for 20 s for three times. The data were analyzed by Caterra Epitope Data Analysis Software.
B4: binds.
B5: binds.
B6: binds.
B7: binds.
B8: binds.
B9: binds.
B10: binds.
B11: binds.
B12: binds.
B13: binds.
B14: binds.
B15: binds.
B16: binds.
B17: binds.
B18: binds.
B19: binds.
B20: binds.
B21: binds.
B22: binds.
B23: binds.
